Test results: paper PMC8099091, “Heterogeneous multimeric structure of isocitrate lyase in complex with succinate and itaconate provides novel insights into its inhibitory mechanism” (PLoS ONE, 2021)

Target: the molecule itself
Test: SEC-MALS; Superdex 200 Increase 10/300 GL, 20 mM Tris-HCl pH 8.0, 150 mM NaCl, 0.4 mL/min, 20°C; repeated under various conditions with the same results

B1: isocitrate lyase from Mycobacterium tuberculosis (tbICL) (enzyme)
chain: MSVVGTPKSAEQIQQEWDTNPRWKDVTRTYSAEDVVALQGSVVEEHTLARRGAEVLWEQLHDLEWVNALGALTGNMAVQQVRAGLKAIYLSGWQVAGDANLSGHTYPDQSLYPANSVPQVVRRINNALQRADQIAKIEGDTSVENWLAPIVADGEAGFGGALNVYELQKALIAAGVAGSHWEDQLASEKKCGHLGGKVLIPTQQHIRTLTSARLAADVADVPTVVIARTDAEAATLITSDVDERDQPFITGERTREGFYRTKNGIEPCIARAKAYAPFADLIWMETGTPDLEAARQFSEAVKAEYPDQMLAYNCSPSFNWKKHLDDATIAKFQKELAAMGFKFQFITLAGFHALNYSMFDLAYGYAQNQMSAYVELQEREFAAEERGYTATKHQREVGAGYFDRIATTVDPNSSTTALTGSTEEGQFH
notes: Tetramer in solution by SEC-MALS; dimer (subunits A and B) in the asymmetric unit, tetramer by twofold crystal symmetry; Theoretical monomer mass 47.08 kDa including the C-terminal His-tag; also called tbICL1; isocitrate lyase isoform 1; not shown: His-tag, C-terminal, kept
stoichiometry N: 4
